Assay results from patent US20190359951.

How the values were obtained:
Test in all cases: cell_activity
[1] = system: TALE #11-LSD1 fusion (ZFPM2 +16 enhancer) (synthetic construct; LSD1 Homo sapiens); conditions: K562; histone modification levels reduced at target; expression change not statistically significant; +16 assigned to #11 from coordinates
[2] = system: TALE #28-LSD1 fusion (ZFPM2 +45 enhancer) (synthetic construct; LSD1 Homo sapiens); conditions: K562; histone modification levels reduced at target; expression change not statistically significant; +45 assigned to #28 from coordinates
[3] = system: SCL enhancer TALE-LSD1 fusion (synthetic construct; LSD1 Homo sapiens); conditions: K562 ChIP-qPCR vs mCherry; H3K27ac reduced >4-fold; target assigned to #4 by inference
[4] = system: TALE #25-LSD1 fusion (ZFPM2 +10 enhancer) (synthetic construct; LSD1 Homo sapiens); conditions: K562 RT-qPCR; TALE #25 without LSD1 had no effect on ZFPM2
[5] = system: TALE #14-LSD1 fusion (synthetic construct; LSD1 Homo sapiens); conditions: K562 3'DGE confirmed by RT-qPCR; #14 identified via cDNA qPCR primer set in Table 2

## TCCAGTCCCTGGCTCCCATG (double strand) [TALE #11 target chr8:106,347,824]
[1]
  activity (% ZFPM2 expression reduction): 13

## TAAGTCTACATATAGTATCC (double strand) [TALE #28 target chr8:106,376,850]
[2]
  activity (% ZFPM2 expression reduction): 22

## TCCGTGGCTGCCAGTCTG (double strand) [SCL enhancer TALE target (TALE #4, chr1:47,647,018)]
[3]
  activity (fold H3K4me2 reduction): 3

## TTAAGCTTCTGAAGTCAG (double strand) [TALE #25 target chr8:106,341,287]
[4]
  activity (fold ZFPM2 expression reduction): 2

## TAGCCGCGAGGAAGGCG (double strand) [TALE #14 target chrX:49,023,709]
[5]
  activity (fold nearby gene down-regulation): > 1.5
